Source: the DeepSol protein solubility set

Experiment: soluble on expression in E. coli; label from the status in PepcDB or PDB records

Soluble on expression in E. coli, soluble:
MANCQIAILYQRFQRVVFGISQLLCFSALISELTNQKEVAAWTYHYSTKAYSWNISRKYCQNRYTDLVAIQNKNEIDYLNKVLPYYSSYYWIGIRKNNKTWTWVGTKKALTNEAENWADNEPNNKRNNEDCVEIYIKSPSAPGKWNDEHCLKKKHALCYTASCQDMSCSKQGECLETIGNYTCSCYPGFYGPECEYVRECGELELPQHVLMNCSHPLGNFSFNSQCSFHCTDGYQVNGPSKLECLASGIWTNKPPQCLAAQCPPLKIPERGNMTCLHSAKAFQHQSSCSFSCEEGFALVGPEVVQCTASGVWTAPAPVCKAVQCQHLEAPNEGTMDCVHPLTAFAYGSSCKFECQPGYRVRGLDMLRCIDSGHWSAPLPTCEAISCEPLESPVHGSMDCSPSLRAFQYDTNCSFRCAEGFMLRGADIVRCDNLGQWTAPAPVCQALQCQDLPVPNEARVNCSHPFGAFRYQSVCSFTCNEGLLLVGASVLQCLATGNWNSVPPECQAIPCTPLLSPQNGTMTCVQPLGSSSYKSTCQFICDEGYSLSGPERLDCTRSGRWTDSPPMCEAIKCPELFAPEQGSLDCSDTRGEFNVGSTCHFSCNNGFKLEGPNNVECTTSGRWSATPPTCKGIASLPTPGVQCPALTTPGQGTMYCRHHPGTFGFNTTCYFGCNAGFTLIGDSTLSCRPSGQWTAVTPACRAVKCSELHVNKPIAMNCSNLWGNFSYGSICSFHCLEGQLLNGSAQTACQENGHWSTTVPTCQDDGKCPLNPHSHLGTYGVFTNAAFDPSP
MAHHHHHHMLRPTRVSRLVRSGSVALTPSCWTTKPAGWYLVPSSTLPATEELRVGKCFDFLNHSAQYLFLGQVMALAEEVKCIPWLEWFYSELHFSLPPTKEAELLANYMNDQERLRCGLRNHSEGGTSSSDIAWSRELKERVQRRAEEDFCWLLTHDQRKTEKFLQETFIQWHHRADYLVTRKSREKREFREDLTLQKVIQQGQERKRRMQRRRNRDEARQEAIKSGKESEWDNFTHDVLPRELREALDRESDGMEDVRLSRAGTATGGWSRSMRSHPNFR

Soluble on expression in E. coli, not soluble:
MGSDKIHHHHHHMSSSDNILERLLFTIHKRLVSIPIAPNLRKNVAPIVNDWPSRPEKNTRPSTTVHLPAVDYLEQALKIGETSGDREICPMIRLLAPELSWNFDYAPHPAFPYLDEKVAFTQFVGPNDLWVSSHLAIGLTLIAPETHYPAHCHPATEIYLPLAGTGSWSMGNYYYFPRKPGELIFHPSGITHATQAQEEPMLALYIWHGDICSPSEWLPDECE
MDADKDNIKQACDERSAEMDDMRGEQSMGLVHEIMSENKELDEEIKKLEAELQSDAREFQIKENVPEKKLKLTSVESPEDGCHFSNSSCSFQVSSQILYELQKGQALITFEKEEVAQNVISMGNHVVQMEGTPVKVSAHPVPLNTGVRFQVHVDISKMKINVTGIPDELSEEQTRDKLELSFCKSRNGGGEVESVDYDRKSRSAVITFVETGVVDKILKKKTYPLYMNQKCHSVAVSPCIERRLEKYQVFSAVSKKTVLLTGLEGIRVDEETGEDLLNIHFQRKNNGGGEVEVVKCSLDQSFAAYFKEEARETI
MELTVKDIQTWLDNYSKVIEEKKDYLSELDTPIGDGDHGNNMARGMAEYKIAFDKKVPTTITETFKVLSMALISKVGGASGPLYGTAFMNMTKATKDLETISSPEQLKEIVQQGLAGIQMRGKAEPGDKTMVDVWAPVAEVIGTEQFNEEKIEQFAEATKDWVAKKGRASYLGERAIGHIDPGAASSALLFEELVKVINQ
MGSDKIHHHHHHMTSARRMLIDANTTPFYHVINRCVRRAFLCGEDKLTGRSYEHRRGWIVDKIKALSAIFCIDICAYAVMSNHYHLVLKIDVEKAKSLTQKDIISRWCQITKGHAIATKYMNGDALIEGERMLLDALIAEWHERLSSISWFMRCLNEEIARKANREDECKGAFWEGRFKSQALLDEQALLACMMYVDLNPIRAGIADSLQSSDFTSIQERMNSLNTHSIAPKLAKITVDNTLSIPHKSLAKFEGATHIHQQTGIPFHFADYLELIDWTGRAIRHDKKGFIDNLRPKLLNELGIASDAWLLSAKEFRRQYSGVSGRWDAMCAFKHKQGGKWCRGKSHSQALHPEQINGLTLR
MGSDKIHHHHHHMQQPLAYRMRPKTLKDVVGQQQLVGPGKIIARMVKAKRLSSMILYGPPGTGKTSIASAIAGSTKYAFRMLNAATDSKKQLQIVAEEAKMSGTVILLLDEIHRLDKTKQDFLLPHLESGRIILIGATTENPYISINPAIRSRTQIFQVFPLTDDDIQHAVERALADEKNGLGSYHVDLAPAAMHHLCTATNGDLRSALNGLELAVLSSSPADDGTIAISQQTIEECLQKKALSADKDGDAHYDVISAFQKSIRGSDVNAALHYLARLVEAGDLKSIMRRLMVIAYEDIGLANPAACAHTVAAVQAADQLGFPEARIPLADAVIELALSPKSNSGISAIDAALTTVRDGHFGDIPADIKDAHYQGAAKLGHGVGYDFPHDHPGDWVAQQYLPDAIKSAKYYEPKTNGRYETALAQQYEKLLKANERNR
MGSDKIHHHHHHMRTYTKEIQAIIDNVEKVIIGKENVITQSLAALLAGGHVLLEDVPGVGKTMLVRAFSRSIGLTFKRVQFTPDLLPSDLTGVSMYNQKTSQFEYRPGPLMGNIVLADEINRTSPKTQSALLEGMAEANVTVDGEIHTLPNPFFVMATQNPIEHEGTYPLPEAQLDRFLIKVKMGYPDFQQEMKLLTRFERDEPIETLESVITRDELLRMKEDVKAVHVSQPVKKYIVHLVQATRTHASLYLGASPRSSIALMKVAQAWAYMEGRSFVLPDDVKELLTPVLSHRLILTADARYHGQTAERILEQVKKEVAVPIQQDVESL
MAHHHHHHMYSFSLASNRKRAIPNASGLAPPAAAHVIRAPSELKPHQRLPQPLNEAADDAADDDVMQVSNARFGWHPAHAHAPTSSLYSVRPPAEQLVHVHNLNAYAGLRDAADWSVEVQREREQKKRRALAQHEAVKLEEQRHRDAHEEQTKKEMQQRRLERQQERAELREADAMADFQERNTQFLQNQLWLMQLGSYVKQTDAQHKAHVREELHKSSSSRNHLDVDHASTTCWTGTKARGHHASAPSTEIDLRQAAEATEEAYVRLSLAYRNEAQRSRAAAAILHPGELTGKGRSRLQAIRPAGAFASPTSPSAPSQAATAVSTPSHSPAASPAPAAVTEAAAKVSAPFHTAPPMFTHTSTENMGQHANAIPYTYIPEYFDAPSAAATTGKVPAPHRAGESPEQQETGAVMPLPLSPVPVSRDVTGALQARYYPWALYSAATVRKSMLPPLPPPREASLPVRRWGAAELRDSMFGHCILEDGTIQDQCERKKVCAAYLSYTTLPRDNATATSNAAVEPQEPLHFGKRMDIWL
MKLSVYVASAFSKDHKGGNKAGVVFIENSLTTTQKMAIAKQLGYAETAFISESEIADYKFEYFTPKEEVDLCGHATIGSFAILMHLNKLFRNRYTIETNSGVLTITIKDDSIFMEQNNPIFYDVVSPNEFIDCFDMKAIDNKYPIQIVSTGLKDILIPIKSETRLHALQPSFEKIKEISKYYNVVGMHLYTFNDDRIICRNFAPLYDINEEAATGTSNGALACYLHEQHNLQKEVYVFEQGYSLQSPSEILVTLATNSKNEIEKVYVGGKGYYCETKCLNVENME
MGSDKIHHHHHHMIVLGHRGYSAKYLENTLEAFMKAIEAGANGVELDVRLSKDGKVVVSHDEDLKRLFGLDVKIRDATVSELKELTDGKITTLKEVFENVSDDKIINIEIKEREAADAVLEISKKRKNLIFSSFDLDLLDEKFKGTKYGYLIDEENYGSIENFVERVEKERPYSLHVPYQAFELEYAVEVLRSFRKKGIVIFVWTLNDPEIYRKIRREIDGVITDEVELFVKLR
MAKAFEEQRRSPDLEALPFEDRIGLLVDREAAERDTRRLTTRLKIAALRQTACVEDVDLRTPRGIDRAVFAKLVEGRWIDRHENLLVTGATGLGKSWLACALGHKACRDNRSVLYHRVPRLFEALALARGDGRYARLLKSLGRAQLLILDDWGLSVLTAAERRDLLEILEDRHGRASTIVTRQLPVDTWHGAIGDPTVADAILDRLVHNAHRLQLTGESMRKRSAKTITLDGQPEHAAALEHHHHHH
MSLAQEDLLAKGEYLTRAANCVACHTVPGGQPFAGGVEFKLPFGSLFSPNITPDPQTGIGAWTDDEFVSALQTGIGRDGKHYYPAFPYTSYSKMSRDDILAIKGYLDSLQPVEQAPRENHIGFPFNQRWGMVFWNLLFLNDEPFQADSQRSAEWNRGKYLVEGPGHCGECHSPRNLFQAVSSERSLAGNLIQGWNAYNISADPVHGIGAWPTDVLAGYLKDGAAPGLGLSSGPMAEVVENSLRHLTDADRQAIAVFLKDSPPRSEGVPRPQQVTLAEPGSGSALGNKLFAEACASCHRWDGTGNQSQTAMLLGLKTVNDPAASNLLGILLSGHGAADAPVNRRMPSFGNIYTDQELAALSSFMLQRFGESGAQVSVPAVAKRRTESLHEGHHHHHH
MHSPDPFTDHPDSDDSFEKFVPTPNVNRRRSDAIIVSDEGSFDGITGYSQVTVIENCPNTTVLEDENKRANPDDTITRMLESSDEEDETENNSDNDALADLLKSFRTEDQKRKEVDIEQAANISIDIFGDLIEEVDSEHEAAEYPDREGGNSMDKQGTMLPVEVPIQNNIKLIPRKRRLEPKSYDCEPSTSAAHGPVGVVSSDSGEYWNQQKTITIHGQNFEINNFNDYMRMKITKLNHQVNHGYAKPLENVSRIMEGFSVFVNGYTDPPALVIRDLMISHGGEYHCYYQHGITSYTIASSIATAKINRIRENEIFIKADWITESIAAGKPLDYRDFLIYEKGSVEKGQMQQFLTISTRNTGGNNETTSSNQFSDARNPNFIRDYYARSRLHLISTLAQDMKDFVANLKLEGKLTEKCFEEKELIDMKSLSNEISRESTVFHVDLDCFFVSVAVRNRIDLKHKEVAITHSKGTISNSMSEVASCSYAARDCGVKNGMLVRDALQKCPQLTLLPYQFEDYVQVSRKIYEILASYTLEVRAVSCDEMYINMSSFCEKYEINDPTILAEHIRKVIREKTQCPASVGIGSTSLLARLATRHAKPDGVFWVNAHKKNEFISEEKVKDLPGFGYEMMNRLTSFFGDITKCRELQLKTERELVPVFGPKLASKILRQCRGIEEDPDDFWATHVRKSVSCDINYGIRFTKRGEVIQLMTAIGAELERKLIDSKLTAGSITLKLMVRSANAPIQTSKFMGHGICDTFTKTCNLNVPTTRGESLTSEAMKLYAKVSPKVEDLRGVGVTCGKLKSKLKKDAATAVQEMFGKTSRVGNMARTDEQLNIIPRNEDELDKEPVIIPAVTEDLEVQSIPRQINFRVANDIDIPEIVKSTLLNGRSDNNLELEDLEDDGLVENRLAELECIIQNEPTKESVTNLQEMLSTLLNYGKLSAFETVFRKFEEISMDSSRCDTAWFSVFHLMVPFIEEESKDLLEFPIATTRNLGAMIASNTDNTSISSPEPFVPKEVFVIDSTKHT
ELKDSYVDYTLLYDMIANRIGIEEAVVENGALRLMKNQVWAYDFLPHMLIAGGTGGGKTYFLLTIIEALLKSDAELFILDPKNADLADLGTIMTHVYSQKEQISACVEDFYERMMVRSRLMKEMPNYKTGENYAYLGLSPNFLVFDEYVAYMEMLTTKESAVILNKLKQIVMLGRQSGFFLILACQRPDA
MQRYFVEEKYVNETSIRIVGDDVHHIARVMRMSAGDHIYCCVNGKTAVCSIDEITSEFINTAIVEWVEASSELPVFVTIASGLPKGDKLELIFQKGTELGAAAFLPFQASRSIVKWDAKKADKKVERLRKIVKEAAEQSHRSEIPEVHAPASFKQLLSMSGEYDTCLVAYEEEAKQGEKSNFAKALTTMKPGQKLLIVFGPEGGLAEEEITALREHKFVPCSLGPKNFKNRNGAVIRVKCCFVSF
